In patent publication US20220195014A1:

Target: recombinant human NPR3 extracellular domain portion (amino acids Gly27-Ser482) fused to the Fc portion of mouse IgG2a (human; mouse) (UniProt P17342)
Test: blocking ELISA, plate-coated hNPR3-mFc, competitor biotin-hANP, 1 µg/mL control antibody

Sequence of UniProt P17342 (P17342 27-482 limits assumed): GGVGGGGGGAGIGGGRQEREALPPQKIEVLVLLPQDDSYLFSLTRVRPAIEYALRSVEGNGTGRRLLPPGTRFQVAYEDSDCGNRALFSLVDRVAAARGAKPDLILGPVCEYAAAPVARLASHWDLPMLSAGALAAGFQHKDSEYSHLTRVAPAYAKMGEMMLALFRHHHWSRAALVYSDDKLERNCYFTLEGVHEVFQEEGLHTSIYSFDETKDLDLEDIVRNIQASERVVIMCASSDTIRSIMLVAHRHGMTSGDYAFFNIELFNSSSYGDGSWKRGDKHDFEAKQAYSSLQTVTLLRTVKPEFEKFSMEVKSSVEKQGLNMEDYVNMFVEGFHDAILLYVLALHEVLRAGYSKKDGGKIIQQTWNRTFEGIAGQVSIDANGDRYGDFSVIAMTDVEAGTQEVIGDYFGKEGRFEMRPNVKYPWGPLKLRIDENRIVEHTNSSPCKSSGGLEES

- percent blockade: 32%
Substance: non-binding human IgG1 isotype control antibody (blocking ELISA)
